Experimental data taken from paper PMC4703863.

What was measured:
His6-T7 RNA polymerase [1] = biological target: T1, His6-T7 RNA polymerase (bacteriophage T7, UniProt P00573 1-883); experiment: smFRET; no NTPs; ~0.4 FRET; Transcription-scanning buffer: 40 mM Tris-HCl pH 7.9, 5 mM Mg2+, 60 mM Na+, 0.2 mg/ml BSA, 2 mM Trolox, PCA/PCD; 0.5-5 nM RNAP, 20 nM AID; temperature and ssDNA
His6-T7 RNA polymerase [2] = biological target: T1, His6-T7 RNA polymerase; experiment: smFRET; no NTPs; ~0.85 FRET; Transcription-scanning buffer: 40 mM Tris-HCl pH 7.9, 5 mM Mg2+, 60 mM Na+, 0.2 mg/ml BSA, 2 mM Trolox, PCA/PCD; 0.5-5 nM RNAP, 20 nM AID; temperature and ssDNA
His6-T7 RNA polymerase [3] = biological target: T1, His6-T7 RNA polymerase; experiment: smFRET; no NTPs; Transcription-scanning buffer: 40 mM Tris-HCl pH 7.9, 5 mM Mg2+, 60 mM Na+, 0.2 mg/ml BSA, 2 mM Trolox, PCA/PCD; 0.5-5 nM RNAP, 20 nM AID; temperature and ssDNA
His6-T7 RNA polymerase [4] = biological target: T1, His6-T7 RNA polymerase; experiment: smFRET; no NTPs; ~0.95 FRET; Transcription-scanning buffer: 40 mM Tris-HCl pH 7.9, 5 mM Mg2+, 60 mM Na+, 0.2 mg/ml BSA, 2 mM Trolox, PCA/PCD; 0.5-5 nM RNAP, 20 nM AID; temperature and ssDNA
His6-T7 RNA polymerase [5] = biological target: T1, His6-T7 RNA polymerase; experiment: smFRET; no NTPs; ~0.2 FRET; Transcription-scanning buffer: 40 mM Tris-HCl pH 7.9, 5 mM Mg2+, 60 mM Na+, 0.2 mg/ml BSA, 2 mM Trolox, PCA/PCD; 0.5-5 nM RNAP, 20 nM AID; temperature and ssDNA

T1 sequence (P00573 whole entry): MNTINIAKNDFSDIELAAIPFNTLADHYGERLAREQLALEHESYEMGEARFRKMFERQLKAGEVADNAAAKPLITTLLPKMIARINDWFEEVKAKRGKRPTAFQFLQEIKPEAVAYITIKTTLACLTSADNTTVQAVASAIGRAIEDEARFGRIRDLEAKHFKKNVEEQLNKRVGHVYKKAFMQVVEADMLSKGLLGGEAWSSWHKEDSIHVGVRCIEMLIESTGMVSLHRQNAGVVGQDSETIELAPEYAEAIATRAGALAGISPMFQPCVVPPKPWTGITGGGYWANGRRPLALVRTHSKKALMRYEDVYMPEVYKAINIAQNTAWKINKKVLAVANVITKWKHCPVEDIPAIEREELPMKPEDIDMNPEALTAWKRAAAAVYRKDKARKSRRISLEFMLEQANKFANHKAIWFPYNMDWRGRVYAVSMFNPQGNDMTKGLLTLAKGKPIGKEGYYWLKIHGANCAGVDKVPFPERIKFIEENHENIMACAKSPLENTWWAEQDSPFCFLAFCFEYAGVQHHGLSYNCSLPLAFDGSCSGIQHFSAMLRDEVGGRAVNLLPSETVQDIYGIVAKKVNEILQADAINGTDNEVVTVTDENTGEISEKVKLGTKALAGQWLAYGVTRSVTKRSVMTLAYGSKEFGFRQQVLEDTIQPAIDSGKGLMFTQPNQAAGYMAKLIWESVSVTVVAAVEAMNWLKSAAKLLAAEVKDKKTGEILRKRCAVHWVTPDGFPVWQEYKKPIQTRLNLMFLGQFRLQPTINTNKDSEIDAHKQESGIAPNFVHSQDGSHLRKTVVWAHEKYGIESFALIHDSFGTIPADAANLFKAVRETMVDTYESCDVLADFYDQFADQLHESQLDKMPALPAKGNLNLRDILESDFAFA

B1: T7 promoter dsDNA shifted 10 bp downstream (29 bp from Cy3 end) (dsDNA)
DNA 1: TTTGTGAGGAGGTCAGAGATGCATAATACGACTCACTATAGGGAGAAAAGGGGAAAGCAAAGAGGAAAG
DNA 2: CTTTCCTCTTTGCTTTCCCCTTTTCTCCCTATAGTGAGTCGTATTATGCATCTCTGACCTCCTCAC
B1: binds (His6-T7 RNA polymerase [1]).

B2: T7 promoter dsDNA shifted 20 bp downstream (19 bp from Cy3 end) (dsDNA)
DNA 1: TTTAAGAGGAAAGGTGAGGAGGTCAGAGATGCATAATACGACTCACTATAGGGAGAAAAGGGGAAAGCA
DNA 2: TGCTTTCCCCTTTTCTCCCTATAGTGAGTCGTATTATGCATCTCTGACCTCCTCACCTTTCCTCTT
B2: binds (His6-T7 RNA polymerase [2]).

B3: No-promoter dsDNA 66-mer (dsDNA)
DNA 1: CAGAGATGCAGCCGTCCGTATCCGTATTGTAGAAAAGGGGAAAGCAAAGAGGAAAGGTGAGGAGGT
DNA 2: ACCTCCTCACCTTTCCTCTTTGCTTTCCCCTTTTCTACAATACGGATACGGACGGCTGCATCTCTG
B3: no binding (His6-T7 RNA polymerase [3]).

B4: T7 promoter dsDNA shifted 30 bp downstream (9 bp from Cy3 end) (dsDNA)
DNA 1: TTTGGGGAAAGCAAAGAGGAAAGGTGAGGAGGTCAGAGATGCATAATACGACTCACTATAGGGAGAAAA
DNA 2: TTTTCTCCCTATAGTGAGTCGTATTATGCATCTCTGACCTCCTCACCTTTCCTCTTTGCTTTCCCC
B4: binds (His6-T7 RNA polymerase [4]).

B5: 69/66-mer T7 promoter dsDNA (promoter 39 bp from Cy3 end) (dsDNA)
DNA 1: TTTCAGAGATGCATAATACGACTCACTATAGGGAGAAAAGGGGAAAGCAAAGAGGAAAGGTGAGGAGGT
DNA 2: ACCTCCTCACCTTTCCTCTTTGCTTTCCCCTTTTCTCCCTATAGTGAGTCGTATTATGCATCTCTG
B5: binds (His6-T7 RNA polymerase [5]).
